# In US20260327578A1, “TRANSGLUTAMINASES AND USES THEREOF” (CURIE CO. INC., priority 2023, published 2026):
# Substitutions are numbered along the chain they refer to. Names may count otherwise.
# B1: A8: Tgase variant S2P D14W Q50S Q74A K91H Q124L K151R K152R N282M G283A S299A relative to SEQ ID NO: 2 (protein, UniProt P81453 77-407, looked up, variant S2P D14W Q50S Q74A K91H Q124L K151R K152R N282M G283A S299A)
# Protein-glutamine …: DPDDRVTPPAEPLWRMPDPYRPSYGRAETVVNNYIRKWQQVYSHRDGRKSQMTEEQREWLSYGCVGVTWVNSGAYPTNRLAFASFDEDRFHNELKNGRPRSGETRAEFEGRVAKESFDEEKGFLRAREVASVMNRALENAHDESAYLDNLRRELANGNDALRNEDARSPFYSALRNTPSFKERNGGNHDPSRMKAVIYSKHFWSGQDRSSSADKRKYGDPDAFRPAPGTGLVDMSRDRNIPRSPTSPGEGFVNFDYGWFGAQTEADADKTVWTHGNHYHAPMASLGAMHVYESKFRNWAEGYSDFDRGAYVITFIPKSWNTAPDKVKQGWP
# B2: A9: Tgase variant S2P Q50S Q74A K91H K95E Q124L K151R K152R N282M G283A S299V relative to SEQ ID NO: 2 (protein, UniProt P81453 77-407, looked up, variant S2P Q50S Q74A K91H K95E Q124L K151R K152R N282M G283A S299V)
# Protein-glutamine …: B1 Protein-glutamine … with W14D, K95E, A299V
# B3: A10: Tgase variant S2P A10T Q50S Q74A K91H Q124L S131I K151R K152R N282M G283A S299V relative to SEQ ID NO: 2 (protein, UniProt P81453 77-407, looked up, variant S2P A10T Q50S Q74A K91H Q124L S131I K151R K152R N282M G283A S299V)
# Protein-glutamine …: B1 Protein-glutamine … with A10T, W14D, S131I, A299V
# B4: A11: Tgase variant S2P D14W Q50S Q74A K91H Q124L S131I K151R K152R N282M G283A S299V relative to SEQ ID NO: 2 (protein, UniProt P81453 77-407, looked up, variant S2P D14W Q50S Q74A K91H Q124L S131I K151R K152R N282M G283A S299V)
# Protein-glutamine …: B1 Protein-glutamine … with S131I, A299V
# B5: A12: Tgase variant S2P R15T Q50S Q74A K91H Q124L K151R K152R N282M G283A H289I relative to SEQ ID NO: 2 (protein, UniProt P81453 77-407, looked up, variant S2P R15T Q50S Q74A K91H Q124L K151R K152R N282M G283A H289I)
# Protein-glutamine …: B1 Protein-glutamine … with W14D, R15T, H289I, A299S
# B6: A13: Tgase variant S2P Q50S Q51E Q74A K91H Q124L K151R K152R F170I N282M G283A H289I S299V relative to SEQ ID NO: 2 (protein, UniProt P81453 77-407, looked up, variant S2P Q50S Q51E Q74A K91H Q124L K151R K152R F170I N282M G283A H289I S299V)
# Protein-glutamine …: B1 Protein-glutamine … with W14D, Q51E, F170I, H289I, A299V
# B7: A14: Tgase variant S2P Q50S Q51E Q74A K91H Q124L Y146F K151R K152R N282M G283A H289I S299V relative to SEQ ID NO: 2 (protein, UniProt P81453 77-407, looked up, variant S2P Q50S Q51E Q74A K91H Q124L Y146F K151R K152R N282M G283A H289I S299V)
# Protein-glutamine …: B1 Protein-glutamine … with W14D, Q51E, Y146F, H289I, A299V
# B8: A15: Tgase variant S2P Q50S Q74A K91H K95E Q124L K151R K152R N282M G283A relative to SEQ ID NO: 2 (protein, UniProt P81453 77-407, looked up, variant S2P Q50S Q74A K91H K95E Q124L K151R K152R N282M G283A)
# Protein-glutamine …: B1 Protein-glutamine … with W14D, K95E, A299S
# B9: A16: Tgase variant S2P D18T Q50S Q74A K91H Q124L S131R V132L K151R K152R N282M G283A relative to SEQ ID NO: 2 (protein, UniProt P81453 77-407, looked up, variant S2P D18T Q50S Q74A K91H Q124L S131R V132L K151R K152R N282M G283A)
# Protein-glutamine …: B1 Protein-glutamine … with W14D, D18T, S131R, V132L, A299S
# B10: A17: Tgase variant S2P D14N Q50S Q74A K91H Q124L K151R K152R N282M G283A relative to SEQ ID NO: 2 (protein, UniProt P81453 77-407, looked up, variant S2P D14N Q50S Q74A K91H Q124L K151R K152R N282M G283A)
# Protein-glutamine …: B1 Protein-glutamine … with W14N, A299S
# B11: A18: Tgase variant S2P Q50S Q51A Q74A K91H Q124L K151R K152R N282M G283A H289I relative to SEQ ID NO: 2 (protein, UniProt P81453 77-407, looked up, variant S2P Q50S Q51A Q74A K91H Q124L K151R K152R N282M G283A H289I)
# Protein-glutamine …: B1 Protein-glutamine … with W14D, Q51A, H289I, A299S
# B12: A1: Tgase variant S2P Q50S Q74A K91H Q124L K151R K152R N282R relative to SEQ ID NO: 2 (protein, UniProt P81453 77-407, looked up, variant S2P Q50S Q74A K91H Q124L K151R K152R N282R)
# Protein-glutamine …: B1 Protein-glutamine … with W14D, M282R, A283G, A299S
# B13: A2: Tgase variant S2P Q50S Q74A K91H Q124L K151R K152R N282E S284A relative to SEQ ID NO: 2 (protein, UniProt P81453 77-407, looked up, variant S2P Q50S Q74A K91H Q124L K151R K152R N282E S284A)
# Protein-glutamine …: B1 Protein-glutamine … with W14D, M282E, A283G, S284A, A299S
# Tested on: N,N-dimethylcasein
# Test: Productivity: total product formed after 24 hours (protein functionalization assay)
# Assay type: biochemical
# Design: key: −: a reduction in activity; +: an improvement between 1.2 and 2-fold; ++: an improvement between 2 and 5-fold; +++: an improvement greater than 5-fold
# Conditions: improvement relative to wild-type Tgase (SEQ ID NO: 2); total product after 24 h
# Procedure: (§1) Enzymatic “productivity” is a measure of product formation or substrate disappearance over time, at a prescribed temperature under specified reaction conditions. It is the measure both the durability and reaction yield of the enzyme variant. In this instance, productivity is defined as total product formed over 24-hours at a constant substrate concentration when the enzyme is the rate limiting factor. The time is defined as 24 hours, which represents approaching or surpassing burnout, denaturation, or self-reaction of the enzyme variant. In other words, variants with higher productivity deliver a higher product yield in 24-hours than variants with lower productivity produce in the same period of time. “Rate” refers to the initial rate for an enzymatic reaction, at a prescribed temperature under specified reaction conditions. The enzyme produces product at an initial rate that is approximately linear for a short period after the start of the reaction. When concentrations of enzyme and substrate are the same across the sample set, initial rates between enzyme variants can be compared. In this instance, the linear range for production of product occurs in one hour. Enzyme variants with faster initial rates deliver a higher product yield in one hour than variants with slower initial rates produce at the same time-period. In some cases, improvements to initial rates also deliver a more productive variant. In some cases, improvements to initial rates result in faster decay of the enzyme variant reducing overall enzymatic productivity. Productivity and rate may be assessed as described in Example 2.
# (§2) Table 6 depicts variants of Streptomyces mobaraensis Tgase and improvement to productivity and/or rate relative to wild-type Tgase (SEQ ID NO. 2) as determined in Example 3. Numbering of amino acid positions is in reference to the mature S. mobaraensis Tgase sequence depicted in SEQ ID NO. 2. A “−” indicates a reduction in activity. A “+” indicates an improvement between 1.2 and 2-fold. A “++” indicates an improvement between 2 and 5-fold. A “+++” indicates an improvement greater than 5-fold.
# To evaluate productivity, total product formed was measured after 24-hours of incubation, using the assay described in Example 4B. The time is defined as 24 hours which represents approaching or surpassing burnout, denaturation, or self-reaction of the enzyme variant.
# (§3) Protein functionalization by Tgase variants was determined by the fluorogenic labeling of casein using monodansylcadaverine (e.g., a commercially available kit such as the Transglutaminase Fluorogenic Activity Assay Kit, T036, Zedira, Germany). Tgase activity was monitored by measuring fluorescence (excitation wavelength 332 nm; emission wavelength 500 nm) using a BioTek Synergy H1 microplate reader. Transglutaminase-catalyzed covalent coupling (crosslinking) of monodansylcadaverine with N,N-dimethylcasein produces a product that causes a shift in intensity and wavelength of fluorescence of the dansyl group now linked to the casein. The relative transglutaminase activity is shown by increase of fluorescence intensity over time. Enzyme variant loading was optimized based on expression levels, ensuring enzyme was the rate limiting factor. Briefly, cell-free reactions (set up as described in Example 2A) were first diluted 10-fold using phosphate buffer, pH 7.4, and a 5 microliter aliquot was analyzed.
row,Molecule,Productivity
1,B1,+ (an improvement between 1.2 and 2-fold)
2,B2,+ (an improvement between 1.2 and 2-fold)
3,B3,+ (an improvement between 1.2 and 2-fold)
4,B4,+ (an improvement between 1.2 and 2-fold)
5,B5,+ (an improvement between 1.2 and 2-fold)
6,B6,+ (an improvement between 1.2 and 2-fold)
7,B7,+ (an improvement between 1.2 and 2-fold)
8,B8,−
9,B9,−
10,B10,−
11,B11,−
12,B12,+ (an improvement between 1.2 and 2-fold)
13,B13,−

# Tested on: N,N-dimethylcasein
# Test: Rate of product formation over 60 minutes (protein functionalization assay)
# Assay type: biochemical
# Design: key: −: a reduction in activity; +: an improvement between 1.2 and 2-fold; ++: an improvement between 2 and 5-fold; +++: an improvement greater than 5-fold
# Conditions: improvement relative to wild-type Tgase (SEQ ID NO: 2); initial rate over 60 min
# Procedure: as §1, §2
# Rate was assessed by measuring the rate of product formation over 60 minutes of incubation using a kinetic method to take scans every 60 seconds to determine product formation, using reaction conditions as described in Example 4B. The enzyme produces product at an initial rate that is approximately linear for the first one hour of the reaction. The concentrations of enzyme and substrate are the same across the sample set for each enzyme variant. Enzyme variants with faster initial rates deliver a higher product yield in one hour than variants with slower initial rates produce at the same time-period.
# as §3
row,Molecule,Rate
1,B1,++ (an improvement between 2 and 5-fold)
2,B2,+ (an improvement between 1.2 and 2-fold)
3,B3,+ (an improvement between 1.2 and 2-fold)
4,B4,+ (an improvement between 1.2 and 2-fold)
5,B5,+ (an improvement between 1.2 and 2-fold)
6,B6,+ (an improvement between 1.2 and 2-fold)
7,B7,−
8,B8,+ (an improvement between 1.2 and 2-fold)
9,B9,++ (an improvement between 2 and 5-fold)
10,B10,+ (an improvement between 1.2 and 2-fold)
11,B11,+ (an improvement between 1.2 and 2-fold)
12,B12,−
13,B13,+ (an improvement between 1.2 and 2-fold)
